PMC5026484 (eLife, 2016)

T1: bMERB domain (Rab binding domain) of Mical-1, residues 918-1067 (human, UniProt Q8TDZ2 918-1067)
T1 construct: Mical-1, human, bMERB domain, residues 918-1067 (isoform 1); Limits are stated for the crystallised construct; also called Mical-1_(918-1067); RBD of Mical-1
T1 sequence (looked up): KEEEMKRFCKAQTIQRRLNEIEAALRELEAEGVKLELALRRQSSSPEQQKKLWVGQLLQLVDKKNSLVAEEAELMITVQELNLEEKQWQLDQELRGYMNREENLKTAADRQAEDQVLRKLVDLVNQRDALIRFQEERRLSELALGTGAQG

T2: Rab13, loaded with GppNHp (UniProt P51153 1-203)
T2 construct: Rab13; also called Rab13:GppNHp; source: expressed and purified as described previously (Bleimling et al., 2009), loaded with GppNHp, gel filtration
T2 sequence (looked up): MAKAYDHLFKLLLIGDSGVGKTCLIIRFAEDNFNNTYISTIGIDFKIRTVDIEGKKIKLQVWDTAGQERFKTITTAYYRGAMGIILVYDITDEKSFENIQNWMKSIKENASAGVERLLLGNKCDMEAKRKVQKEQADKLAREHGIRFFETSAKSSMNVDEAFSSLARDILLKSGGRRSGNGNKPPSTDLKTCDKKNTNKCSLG

T3: Rab15, loaded with GppNHp (UniProt P59190 1-212)
T3 construct: Rab15; source: expressed and purified as described previously (Bleimling et al., 2009), loaded with GppNHp, gel filtration
T3 sequence (looked up): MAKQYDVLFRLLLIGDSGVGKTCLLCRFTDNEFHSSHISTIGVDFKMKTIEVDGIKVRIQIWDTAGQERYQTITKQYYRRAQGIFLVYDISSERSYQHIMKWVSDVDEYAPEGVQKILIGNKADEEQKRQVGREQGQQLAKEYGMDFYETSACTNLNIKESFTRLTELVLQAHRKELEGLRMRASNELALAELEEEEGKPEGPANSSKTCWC

T4: Rab10, full length, loaded with GppNHp (human, UniProt P61026 1-200)
T4 construct: Rab10, human; Rab10Fl in the crystallisation methods; also called Rab10Fl; source: expressed and purified as described previously (Bleimling et al., 2009), loaded with GppNHp, gel filtration
T4 sequence (looked up): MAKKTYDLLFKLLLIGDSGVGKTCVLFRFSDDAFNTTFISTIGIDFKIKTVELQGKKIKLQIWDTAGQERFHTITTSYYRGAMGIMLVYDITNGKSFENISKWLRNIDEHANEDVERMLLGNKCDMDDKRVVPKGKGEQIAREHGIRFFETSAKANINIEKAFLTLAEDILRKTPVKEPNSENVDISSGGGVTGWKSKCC

B1: Rab8a, full length, loaded with GppNHp (natural protein, human, UniProt P61006 1-207, looked up)
chain: MAKTYDYLFKLLLIGDSGVGKTCVLFRFSEDAFNSTFISTIGIDFKIRTIELDGKRIKLQIWDTAGQERFRTITTAYYRGAMGIMLVYDITNEKSFDNIRNWIRNIEEHASADVEKMILGNKCDVNDKRQVSKERGEKLALDYGIKFMETSAKANINVENAFFTLARDIKAKMDKKLEGNSPQGSNQGVKITPDQQKRSSFFRCVLL
notes: Rab8a, human; called Rab8 in the results and Rab8aFl in the crystallisation methods; also called Rab8aFl; source: expressed and purified as described previously (Bleimling et al., 2009), loaded with GppNHp, gel filtration
B2: bMERB domain (Rab binding domain) of Mical-cL, residues 534-683 (domain or fragment, human, UniProt O94851 1796-1945, looked up)
chain: KQEELKRLYKAQAIQRQLEEVEERQRASEIQGVRLEKALRGEADSGTQDEAQLLQEWFKLVLEKNKLMRYESELLIMAQELELEDHQSRLEQKLREKMLKEESQKDEKDLNEEQEVFTELMQVIEQRDKLVDSLEEQRIREKAEDQHFES
notes: Mical C-terminal like protein (Mical-cL), human, bMERB domain, residues 534-683; Limits are stated for the crystallised construct; also called Mical-cL_(534-683); RBD of Mical-cL
B3: bMERB domain (Rab binding domain) of Mical-3, residues 1841-1990 (domain or fragment, human, UniProt Q7RTP6 1841-1990, looked up)
chain: KQEELKRLHRAQIIQRQLQQVEERQRRLEERGVAVEKALRGEAGMGKKDDPKLMQEWFKLVQEKNAMVRYESELMIFARELELEDRQSRLQQELRERMAVEDHLKTEEELSEEKQILNEMLEVVEQRDSLVALLEEQRLREREEDKDLEA
notes: Mical-3, human, whole predicted bMERB domain, residues 1841-1990 (isoform 1); printed elsewhere as 1841-1992; Limits are stated for the crystallised selenomethionine construct; also called Mical-3_(1841-1990); RBD of Mical-3
B4: bMERB domain (Rab binding domain) of EHBP1 (domain or fragment)
chain: not shown
notes: EHBP1 1047-1231 (bMERB domain with CaaX box) is named for the prenylation and localisation experiments only; also called RBD of EHBP1

Key:
[1] = molecular target: B2; experiment: ITC; iTC200, 25°C; 400 µM Rab titrated into 20–40 µM bMERB domain in the cell; 20 mM Hepes pH 7.5, 50 mM NaCl, 2 mM MgCl2, 1 mM TCEP; settings: both partners purified
[2] = molecular target: T1, bMERB domain (Rab binding domain) of …; experiment: as above; settings: both partners purified
[3] = molecular target: B3; experiment: as above; settings: both partners purified
[4] = molecular target: T5, bMERB domain (Rab binding domain) of EHBP1L1 (human, UniProt Q8N3D4 1340-1523); experiment: as above; settings: both partners purified
T5 construct: EHBP1L1, human, bMERB domain; EHBP1L1 1340-1523 (bMERB domain with CaaX box) is named for the prenylation and localisation experiments only; also called RBD of EHBP1L1
T5 sequence (Q8N3D4 1340-1523): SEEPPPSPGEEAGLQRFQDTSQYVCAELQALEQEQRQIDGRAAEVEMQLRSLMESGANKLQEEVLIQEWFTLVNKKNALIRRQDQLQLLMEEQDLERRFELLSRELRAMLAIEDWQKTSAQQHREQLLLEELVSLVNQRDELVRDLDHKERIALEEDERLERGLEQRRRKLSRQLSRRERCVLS

[5] = molecular target: B4; experiment: as above; settings: both partners purified
[6] = molecular target: B3; experiment: SEC; analytical size exclusion chromatography with varying ratios of Rab8 and bMERB domain (1.2:1, 1.6:1, 2.2:1; effector 113 µM, Rab 130, 180 or 250 µM); stoichiometry from the peak of free excess Rab8; settings: both partners purified
[7] = molecular target: T1, bMERB domain (Rab binding domain) of …; experiment: ITC; iTC200, 25°C; 400 µM Rab titrated into 20–40 µM bMERB domain in the cell; 20 mM Hepes pH 7.5, 50 mM NaCl, 2 mM MgCl2, 1 mM TCEP; settings: both partners purified; remark: listed apart in the source
[8] = molecular target: B3; experiment: as above; settings: both partners purified; remark: listed apart in the source
[9] = molecular target: T5, bMERB domain (Rab binding domain) of …; experiment: as above; settings: both partners purified; remark: listed apart in the source
[10] = molecular target: T2, Rab13, loaded with GppNHp; experiment: as above; settings: both partners purified
[11] = molecular target: B1; experiment: as above; settings: both partners purified
[12] = molecular target: the molecule itself; experiment: SEC; analytical size exclusion chromatography of the bMERB domain alone (112.5 µM); apparent size from the retention
[13] = molecular target: T2, Rab13, loaded with GppNHp; experiment: ITC; iTC200, 25°C; 400 µM Rab titrated into 20–40 µM bMERB domain in the cell; 20 mM Hepes pH 7.5, 50 mM NaCl, 2 mM MgCl2, 1 mM TCEP; settings: both partners purified; remark: listed apart in the source
[14] = molecular target: T3, Rab15, loaded with GppNHp; experiment: as above; settings: both partners purified
[15] = molecular target: T4, Rab10, full length, loaded with GppNHp; experiment: as above; settings: both partners purified
[16] = molecular target: B1; experiment: as above; settings: both partners purified; remark: listed apart in the source
[17] = molecular target: T4, Rab10, full length, loaded with GppNHp; experiment: SEC; analytical size exclusion chromatography, Superdex S75 10/300 GL; 130 µM Rab:GppNHp + 112.5 µM (113 µM) bMERB domain; 20 mM Hepes pH 7.5, 50 mM NaCl, 2 mM DTE, 2 mM MgCl2; settings: both partners purified
[18] = molecular target: B1; experiment: as above; settings: both partners purified

B1
stoichiometry N [1]: 1 | stoichiometry N [2]: 2 | stoichiometry N [3]: 2 | stoichiometry N [4]: 2 | stoichiometry N [5]: 1 | stoichiometry N [6]: 1 | KD,1 (two-site fit) [7]: 55.5 nM | KD,1 (two-site fit) [8]: 27.9 nM | KD,1 (two-site fit) [9]: 159 nM

B2
Kd [10]: 93 nM | Kd [11]: 233 nM | stoichiometry N [12]: 2 | Kd [13]: 94 nM | Kd [14]: 33 nM | Kd [15]: 790 nM | Kd [16]: 253 nM

B3
binding result [17]: binds | binding result [18]: binds | stoichiometry N [12]: 2

B4
Kd [16]: 397 nM
